Measured values reported in patent US20260103526A1 (OSE IMMUNOTHERAPEUTICS, published 2026).

T1: Fc-CLEC-1A (recombinant human Fc-CLEC-1 protein, OSE IMMUNOTHERAPEUTICS) (human, Alexa Fluor 488 label in the flow cytometry competition assays)
T1 construct: also called hFc-CLEC; Fc-CLEC1-A488
T1 chain: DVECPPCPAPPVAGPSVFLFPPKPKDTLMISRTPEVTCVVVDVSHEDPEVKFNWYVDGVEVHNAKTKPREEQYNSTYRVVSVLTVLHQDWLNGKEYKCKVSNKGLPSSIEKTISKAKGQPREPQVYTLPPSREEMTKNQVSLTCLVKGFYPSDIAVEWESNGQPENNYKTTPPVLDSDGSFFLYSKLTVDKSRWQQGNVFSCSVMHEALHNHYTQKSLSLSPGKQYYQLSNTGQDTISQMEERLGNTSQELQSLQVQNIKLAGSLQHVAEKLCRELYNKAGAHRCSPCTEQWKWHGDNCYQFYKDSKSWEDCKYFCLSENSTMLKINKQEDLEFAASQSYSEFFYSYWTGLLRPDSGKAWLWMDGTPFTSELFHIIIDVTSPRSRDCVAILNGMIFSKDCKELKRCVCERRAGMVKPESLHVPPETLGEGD

T2: mice CLEC-1A protein (mouse, UniProt Q8BWY2 73-269, limits assumed)
T2 construct: also called mice orthologue of CLEC-1A
T2 sequence (looked up): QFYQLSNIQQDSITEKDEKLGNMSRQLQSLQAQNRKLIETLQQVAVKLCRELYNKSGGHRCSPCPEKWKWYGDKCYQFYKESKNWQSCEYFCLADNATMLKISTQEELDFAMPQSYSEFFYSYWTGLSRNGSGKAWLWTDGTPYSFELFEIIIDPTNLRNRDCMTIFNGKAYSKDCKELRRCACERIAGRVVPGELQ

T3: recombinant hCLEC1-His (R&D SYSTEMS reference 1704-CL) (human, UniProt Q8NC01 74-280, limits assumed)
T3 construct: Bought protein; also called CLEC-His; Clec-His; not shown: His tag
T3 sequence: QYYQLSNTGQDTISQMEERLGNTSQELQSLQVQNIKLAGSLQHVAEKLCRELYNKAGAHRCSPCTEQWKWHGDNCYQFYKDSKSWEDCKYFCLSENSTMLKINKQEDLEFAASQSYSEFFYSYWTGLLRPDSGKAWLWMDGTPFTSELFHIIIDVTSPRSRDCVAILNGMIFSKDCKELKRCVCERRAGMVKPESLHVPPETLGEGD


Tests used:
[1] = target: T1, Fc-CLEC-1A (recombinant human Fc-CLEC-1 …); test: flow cytometry competition: antibody pre-incubated with A488-labelled human Fc-CLEC-1 (10 µg/mL), then binding to live MC38 cells (ligand m16); % hFc-CLEC-1+ cells normalised on hIgG4
Source text: (§1) Murine hepatoma Hepa 1.6 or colorectal carcinoma MC38 cell lines were also used in an antagonist assay. […] Finally, cells were fixed with 1% PFA solution and read on a cytometer.

[2] = target: T1, Fc-CLEC-1A (recombinant human Fc-CLEC-1 …); test: flow cytometry competition; inhibition of Fc-CLEC-1-A488 binding to Hepa 1.6 or MC38 cells; reference chimeric 6C5
Source text: as §1

[3] = target: T1, Fc-CLEC-1A (recombinant human Fc-CLEC-1 …); test: flow cytometry competition: antibody pre-incubated with A488-labelled Fc-CLEC1 (100 nM), then binding to permeabilised NALM6 cells (CLEC-1 ligand m15); % stained cells
Experimental: Revelation was performed on CYTOFLEX cytometer, values corresponding to percentage of stained cells (%).
To measure competition on NALM6 cells.

mice CLEC-1A protein = target: T2, mice CLEC-1A protein; test: in vitro; assay not given
[4] = target: T1, Fc-CLEC-1A (recombinant human Fc-CLEC-1 …); test: flow cytometry competition: antibody pre-incubated with A488-labelled human Fc-CLEC-1 (10 µg/mL), then binding to live Hepa1.6 cells (ligand m16); % hFc-CLEC-1+ cells normalised on hIgG4
Source text: as §1

[5] = target: T3, recombinant hCLEC1-His (R&D SYSTEMS …); test: BLITZ: CLEC-His immobilised on a NINTA biosensor (10 µg/ml), antibody at 20 µg/ml, 120 s association and 120 s dissociation
[6] = target: T1, Fc-CLEC-1A (recombinant human Fc-CLEC-1 …); test: flow cytometry competition: antibody pre-incubated with A488-labelled Fc-CLEC1 (10 nM), then binding to permeabilised Raji cells (CLEC-1 ligand m15); % stained cells
[7] = target: T1, Fc-CLEC-1A (recombinant human Fc-CLEC-1 …); test: flow cytometry competition; inhibition of Fc-CLEC-1-A488 binding to Hepa 1.6 cells; reference chimeric 14H9
Source text: as §1

[8] = target: T1, Fc-CLEC-1A (recombinant human Fc-CLEC-1 …); test: flow cytometry competition; inhibition of Fc-CLEC-1-A488 binding to Hepa 1.6 or MC38 cells; reference chimeric 11H11
Source text: as §1

Binder	EC50 [1] [µg/mL]	EC50 ratio, humanized against chimeric counterpart [2]	IC50 (read off the curve) [3] [µg/mL]	binding result (mice CLEC-1A protein)	EC50 [4] [µg/mL]	Kd [5] [nM]	koff [5] [s⁻¹]	kon [5] [M⁻¹ s⁻¹]	IC50 (read off the curve) [6] [µg/mL]	EC50 ratio, humanized against chimeric counterpart [7]	EC50 ratio, humanized against chimeric counterpart [8]
humanized 6C5 (antibody, V domains shown, Only variable domains are tied to the antibody) VH: QVQLVQSGAEVKKPGSSVKMSCKASGYTFTDYVISWVRQAPGQGLEWMGEIYPGSGNTYYNQKFQGRVTLTADKSTSTAYMELSSLRSEDTAVYYCAGGGSSHFDYWGQGTTVTVSS VL: EIVLTQSPATLSLSPGERATLSCRASQSVDNHGFSFMNWFQQKPGQAPRLLIYAASNRGTGIPARFSGSGSGTDFTLTISSMEPEDFAVYYCQQSKEVPWTFGGGTKVEIK	0.522	≤ 0.5 fold (EC50 humanized / EC50 chimeric)	~3	no binding	1.06	5.69	0.000275	48300			
humanized 14H9 (antibody, V domains shown, Only variable domains are tied to the antibody) VH: QVQLVESGGGVVQPGRSLRLSCAISGFTLTTYGIHWVRQAPGKGLEWVAVIWSDASTIYASSLKSRFTISKDNTKNTVYLQMTSLRAEDTAVYYCARHGGYYNYFDYWGQGTLVTVSS VL: DIQMTQSPSSLSASVGDRVTITCHASQNINVWLSWYQQKPGKAPKLLLYKASNLHTGVPSRFSGSGSGTDFTLTISSLQPEDIATYYCQQGQSYWTFGGGTKVEIK			~3	no binding	0.539	5.4	0.000419	77700	~0.2	≤ 0.5 fold (EC50 humanized / EC50 chimeric)	
chimeric 6C5 (antibody, V domains shown) VH: QVQLQQSGPELVKPGASVKMSCKASGYTFTDYVISWVKQKTGQGLEWIGEIYPGSGNTYYNEKFKGKATLTADKSSSTAYIHLSSLTSEDSAVYFCAGGGSSHFDYWGQGTTLTVSS VL: not shown	2.81				2.44						
chimeric 11H11 (antibody, V domains shown) VH: QIHLVQSGPELKKPGETVKISCKASGYTFTNFGMNWVKQAPGKGLKWMGWINTNTGEPTYADDFKGRFAFSLETSASTAYLQINNLKNEDTATYFCARGAPAWFTYWGQGTLVTVSA VL: DIQMTQSPASLSASVGETVTITCRATENIYSYLAWYQQKQGKSPQFLVYNAKTLAEGMPSRFSGSGSGTQFSLKINILQPEDFGTYYCQHHFGTPLTFGAGTKLELKR	2.33				2.58						
humanized 11H11 (antibody, human IgG4, V domains shown, Only variable domains are tied to the antibody; also called hum 11H11) VH: QIQLVQSGSELKKPGASVKVSCKASGYTFTNFGMNWVRQAPGQGLEWMGWINTNTGEPTYADDFKGRFVFSLDTSVSTAYLQISSLKAEDTATYFCARGAPAWFTYWGQGTTVTVSS VL: DIQMTQSPSSLSASVGDRVTITCRASESIYSYLAWYQQKPGKAPKFLIYNAKTLASGVPSRFSGSGSGTDFTLTISSLQPEDFATYYCQHHFGTPLTFGQGTKLEIK	1.33		~3	no binding	0.542	0.301	7.19e-05	239000			≤ 0.5 fold (EC50 humanized / EC50 chimeric)
chimeric 14H9 (antibody, V domains shown) VH: QVQLKESGPGLVAPSQSLSITCTISGFSLTTYGIHWVRQPPGKGLEWLVVIWSDGSTIYNSALKSRLSISKDNSKSQVFLKMNSLQTDDTAIYYCARHGGYYNYFDYWGQGTTLTVSS VL: DIQMNQSPSSLSASLGDTITITCHASQNINVWLSWYQQKPGNIPKLLIYKASNLHTGVPSRFSGSGSGTTFTLTIDSLQPEDIATYYCQQGQSYWTFGGGTKLEIKR					2.72						
